This series can be described thus: label from the status in PepcDB records.

23 sequences from a protein production outcome set (Wang et al. 2014) can be followed below.

Regarding “MKTLDFRRAGAHIALVVLFAVCPVAFADENDEVAKLYQQGNLDKALEQANAYLALKPKDPQMRFHKGLILTEQQKIPDAIKVFSSLSEDYPNLPEPYNNLAVLYASQGLYEKARGALEAAIRTHPSYSIAHENLGDIYAKLASEAYGKALQLDQGNAAAQTKLAMIKDLFIGKSGAIKTASAATAPAPPASAAPRSPAATTPSPPRSAAPATPPASVHPAPGKAPQKSAEKKTEKAEKSAPGKIAAVETHSPEKKTDVPDESDEIIKTVNAWARAWSDKNVTAYFAFYAADFQTPRGVKRTTWEKTRRDRIIKPKAIQVEITHPKVTLINPARARVSFRQLYHSDAFKHDSSKTLEMVKTDGKWQIRQERSAK”, the protein production result is “failed”.

As for “MKTLGNILWFIFGGFFGGLSWLFAGVIWCITIIGIPIGLQCFKLAGLSFWPFKKRVVYSDSGVSLVVNIIWLIISGLPLAIGHCISGLFLCLTIIGIPFGQQSFKLAKLALMPFGARVVSTNDFYFE”, the protein production result is on record as “failed”.

With “MKTNSEELTVFVQVVESGSFSRAAEQLAMANSAVSRIVKRLEEKLGVNLLNRTTRQLSLTEEGAQYFRRAQRILQEMAAAETEMLAVHEIPQGVLSVDSAMPMVLHLLAPLAAKFNERYPHIRLSLVSSEGYINLIERKVDIALRAGELDDSGLRARHLFDSRFRVIASPEYLAKHGTPQSTEELAGHQCLGFTEPGSLNTWAVLDAQGNPYKISPHFTASSGEILRSLCLSGCGIVCLSDFLVDNDIAEGKLIPLLAEQTSDKTHPFNAVYYSDKAVNLRLRVFLDFLVEELGNNLCG”, the protein production result was “failed”.

As to “MKTQITTRDLVLEFIHALNTENFPAAKKRLNENFTFNGPMGHREGSERYMNDMEKMKFKYVVHKMFEEGNDVCLIYDINMNGKTIAASGLYHLEKGEITSLHVYFDPRPLFEE”, the protein production entry is “not failed”.

In the case of “MKTREYYVAAAAGLIGGNVSSFVKWGTEIPFPPRTPDRPIPPLEMLDSLGINANQLTYVYSEHMVNYGSALIHQSFSIFFAIFYCLTALRYPRVAVWQGFGFGMLVTLAFHGVLLPMFHWAPPLWELPPAEWASETFGHLLWIWVIEVIRRDLQQRWSPGPG”, the protein production entry is “failed”.

For “MKTVILIGALGKMGQAALTGLSKHKVITAGRSGNVDHLVDITNENSIRALYEKVGHFDAVVNTVGFCEYATFAEMTEAQWMTTVMSKMMGQINLVRIGQEYIADKGSFTLISGILNVKPIPCAIADATTSGAIDTFVKCVAYEMQRGTRINVVNPTVLTEAWDVYGDMMPGFEPVPSTLVGKAFERSVDGFINGEVLFVDALEHHHHHH”, the protein production entry is “not failed”.

In the case of “MKTVLLTGFDPFGGESINPAWEVAKSLHEKTIGEYKIISKQVPTVFHKSISVLKEYIEELAPEFIICIGQAGGRPDITIERVAINIDDARIADNEGNQPVDVPVVEEGPAAYWSTLPMKAIVKKLQEEGIPASVSQTAGTFVCNHLFYGLMHELEKHDTKMKGGFIHIPFLPEQASNYPGQPSMSLSTIRKGIELAVEVTTTVEVDIVEVGGTTH”, the protein production entry is “not failed”.

Turning to “MKTVPAMLGTPRLFREFFILHLGLWSILCEKATKRNDEECEVQLNIKRNSKHSAWTGELFKIECPVKYCVHRPNVTWCKHNGTIWVPLEVGPQLYTSWEENRSVPVFVLHFKPIHLSDNGSYSCSTNFNSQVINSHSVTIHVRERTQNSSEHPLITVSDIPDATNASGPSTMEERPGRTWLLYTLLPLGALLLLLACVCLLCFLKRIQGKEKKPSDLAGRDTNLVDIPASSRTNHQALPSGTGIYDNDPWSSMQDESELTISLQSERNNQGIVYASLNHCVIGRNPRQENNMQEAPTEYASICVRS”, the protein production result is on record as “not failed”.

Turning to “MKTYSVIAVASLLATNLLTFPSSSLAEIENKTRNSIEAVSHMQSNEKSELQKQLEAAKEREMKLEKREEILKQQEELFIKIDDLKQKKEELLEQAGEHNVQIEEVYQELNELKKQQEELEEKNPLQVKSNDQEKKTNELKSQEELKEKDGVEVKENNGQEEKVHEEFEEQKKKEELKKQQDELRKQQEELKKQQLELEQRIKQELERKQQEEQAKQELELKQKEEQAKRELELKQKEEQVKQELELKQKEEQVKQELELKQKEEQVKQELELKQKEEQEKQELELKQKEEQEKQELELKQKEEQKKQELELKQKEEQEKGERELKQAVSSIQAAPQSFPDVPGWAQESVYYLVHKKVISGMPDGTFSPSKVLSRAEAATIMAKILELEVSEGEKPTFTDSQDHWATPYIAAVEKAGVIKGEGNGKFNPNGQMTRAAMATMLVQAYQLEKKVHEELPTLFPDVKDHWGEKFINILVGMGISSGVDGGRWQPDRSITRAEAAQLVAVTDKSKDNELKMKKVSISKKFFTYNGPSLSSGISKEYGPREVTVYEERDGGWIRIHTDTGFKWVCLVEKKVNMNKNFLTYNEASLSSGISGEYAPQIVTVIEEREGNWIKVYTDLGYKWVCLIDKKVQIDRDFTTYDAPFRSANILDYYGPQAVTVVEERGTWLRIRTYAGYQWLDTKKEAKYLSKVFFAYDSPSFVSRVSGKYAPQTVEVYGEREGGWIQIQTSNGLKWVNEGNINRSQVILNVPSLYQFPELHNGCEVVSLQMLVEHQIGRSLNKVAFAFEMPFDQAKLKNYKTSSQIWGDPDVGFVGDVTGNTPGYSINPEPLKRLLDKYSRGTNLTGNDLSVLEDYVRNGKPVVTWVTVALNNPRAVTTWKTPGGKIIYARMNTHAVVLTGVDDNYVYYNDPFYGTKNVKVSKSRFASIYNQMGKKALSVD”, the protein production entry is reported as “failed”.

As to “MKTYTSVIFWMRTIACLSIVLIHSITTTFSKMDFLGHGTAIRVFQLMLMFSTPLFVFISEFLLAKNYQVKTKPGFFKNKLIYLGIPYIIINIGIALFYFESKTFDQFMTHLGDTMFHGGAVTYFIVIIFQFYILHILFAKYLIKWKPVPVIIGAVIFATIYWAFRQYAPQSEHPILGLFWEREGWMLFLGWISYFLLGFYTGIYYETFMKKIKKYTWPIIIGAIIATSILVDNYLFGISTWVESKRFDIPFYVKMVILVFFLFASYVKYVPKFILFISNYSFCIYLIHYFFVHELGLLRAASSLRNIAFNFIITLTVSICLAYIFNLSKYGKFIVGGIGHIKYDKVYESYKHGKMD”, the protein production entry is “failed”.

For “MKVAILGAGCYRTHAASGITNFSRASQVAKEAGIPEIAMTHSTITMGAELLHLIPEITEVVVSDPCFAEEPGMVVLDQFDYKAVMEAHLAGDAEKVMPEIREAVKAKAKETPKPPKGCIHFVHPETVGLKVTASDVEAVKDADIVITWLPKGGSQPAIIEKFASEIKKGAIVTHACTIPTPKFAKIFKDLGRDDLNIIAYHPGAVPEMKGQAFLSEGLADAEKVEEFYCMAKTARGEAFKMPANLISPVCDMGSAVTAPVYAAILAYRDAVTQILGAPADFAQMMADEAISQILDLMRNEGIKNMEDKLNPKALTGTADSMCFGPLADILPASLKVLEKHANENKCECGCSIKP”, the protein production entry was “failed”.

For “MKVALGGTFEPLHEGHKKLIDVAIKLGGRDITIGVTSDRMARARIRSVLPFAIRAENVKRYVMRKYGFEPEIVKITNPYGKTLDVDFEYLVVSPETYEMALKINQKREELGKRKITIVKVDWMMAEDGKPISSTRIKRGEIDRYGG”, the protein production result is given as “failed”.

On to “MKVEKGDVIRLHYTGKVKETGEIFDTTYEDVAKEARIYNPNGIYGPVPIAVGAGHVLPGLDKRLIGLEVKKKYVIEVPPEEGFGLRDPGKIKIIPLGKFRKSGIIPYPGLEIEVETENGRKMRGRVLTVSGGRVRVDFNHPLAGKTLVYEVEVVEKIEDPIEKIKALIELRLPMIDKDKVIIEISEKDVKLNFKDVDIDPKTLILGEILLESDLKFIGYEKVEFEPTIEELLKPKSAEEQESPNEEQQEESESKAEES”, for which the protein production result is given as “failed”.

With “MKVFEFEVGKGFLLRLDYGKDLVRQIEEFLEEKGIHAAHISAIGAVRSAVIGYYDQEKKEYVKKELMEPLEILSLSGNVSMKDSKPFCHIHVLLGKDGEVYGGHLFSAEVFACEVFVLPLSGEAPERAFDEQTGLFLWLEHHHHHH”, the protein production result is “not failed”.

In the case of “MKVGIIGLGFRLGYLGYVFKAIDSSFDIVGYVDPDPAGLPGLTEKGISAGKAYGSPEELLASEKLDLLMIGSPNHMHLGHIRLGLQAGLKVFCEKPIVTTIAESIELAHLMAKFGHERLMVGLVLRYSPLYKDLRAIQAEGKLGQIVSIEASEHIEPYHGAFFMRDWRRYERYSGSFMLEKCCHDLDLYNGVVGARPERVASFGGRKSFIPANDPAREGINDLELFHRKPSGWMGSDKVFDSDADIIDYQVAIVEYENGVGMNFHTNLNVPDQFRRFAIMGSRGMAEGDFVRGYLDVHEQLTGNKIVENKYAATELSQHYGADEQMASDLLESVRTGLELPVSTLNALEAGILALAMDEARMKKTVVDLRPIWDRFDEALHARAA”, the protein production result is “failed”.

For the sequence “MKVGVIGASEMAGSAIYKLAKQNLEIDVTGIVRHESKAKKVLGDDAKLIVGDIFALSDNILDKFDVIIDAFGTDPKNAEEHVILAKKLINLVRKNKIRVIFILGAGSLHTGDDEHLVVDDIAQMDNADTWINTPRQQLKELEYLNSIDDVDWLGISPALQFEAGPATEYIEGTDELLYNKDGDSKLTSGTMATVVIKETVDSVHHQERITIANALEHHHHHH”, the protein production result is given as “not failed”.

With “MKVIETNFTDAKLLEPRLFGDDRGFFTESYNKKVLETLGVTHSFVQDNVSYSAEAGTIRGLHFQKNPKAQTKLIQVMQGAIYDVIVDLRKDSPTFKQWRGYILSADNHRQLLVPKGFAHGFCTLVPHTIVMYKVDEYYSADHDSGVLWNDKELAIPWPVTSPILSDKDRILPLLQECEDSF”, the protein production entry is listed as “not failed”.

On to “MKVIIIGGETTAYYLARSMLSRKYGVVIINKDRELCEEFAKKLKATIIHGDGSHKEILRDAEVSKNDVVVILTPRDEVNLFIAQLVMKDFGVKRVVSLVNDPGNMEIFKKMGITTVLNLTTLITNTVEALIFPDEFSSIIPLEQGIE”, for which the protein production entry is “failed”.

As to “MKVLAVAYDPRDFGELATGVRDSLGDAELVFLAVHKAAEEPGKASGYSEKVFVSRTSSPESIALLLEKLISEEKPDIIVGEAYKNLRDALSRVAGKLDLPMATDVSSFSVENGKVKFRKGFLSEKAVMEAEIPKPAVILFLTRFTKPKEISPESQARIVELEPPQGETKVVETRPKEMGGANLEEAEIIVGVGRGFKSKEDLKLAFELAELLNAQIGCTRPIAADLKWLSEDHWIGISGKRVAPKLYLAIGISGSPQHMSGVQNAKIIVAVNKDKNAPIFKQADYGVVADLYQFIPVLIKKLRERKSN”, the protein production result is reported as “failed”.

Consider “MKVLDSRDFAKVKAIAIERASYRNIGALAVYIGSMTGMRISEVLALTWPDIDTKLCVIHVTRSWDHLYGTGFKPTKTDSSVRDIEISPSVIELLNKIHQEQAASYLRTGYRDEDQMIMRDPRHNVITDSACNKALHVIQNKAGIPEDKQITFHGLRHSHVSYLISKGVDIYYISKRLGHSDVTITMKVYGHLLDSQRKQEAHKAVLFMDQILEHHHHHH”, for which the protein production entry is listed as “failed”.

Take “MKVLESAPSRYDRGIRIITLGKLDEAYDRLTSRIKPGQRVLDVGCGTGALTLRAALRGARVKAIDINPQMLEIARKRVEEAGVTGMVELCEMGVAELNTEASEGYDAVMAGLCFSELTEDELSYALREIKRVLKPGALLLIADEAVPESPVKRVLSWLIRAPLAVIAYLLIQTTTRAVKNLPEKLGEEGFLIESVRRSFMEDFVEIVARKPGR”: the protein production result is “failed”.

For “MKVLFLTANEFEDVELIYPYHRLKEEGHEVYIASFERGTITGKHGYSVKVDLTFDKVNPEEFDALVLPGGRAPERVRLNEKAVSIARKMFSEGKPVASICHGPQILISAGVLRGRKGTSYPGIKDDMINAGVEWVDAEVVVDGNWVSSRVPADLYAWMREFVKLLK”, the protein production entry is “not failed”.

In the case of “MKVLIDTNVILDVLLNRASFVQDAIAVLELTCGNIQAYVSASAITDIYYIAYKELRDKIRVKNLIKTLLQIITVAGISDKEIMSAIDSDWADFEDSLQNAVAESHDCSMIITRNISDFNGSNLQIISPKDFIVQFTHLEHHHHHH”, the protein production entry is “failed”.
